T1: ANAC046 intrinsically disordered region, ANAC046(172-338) (Arabidopsis thaliana, UniProt Q9SQQ6 172-338)
T1 sequence (looked up): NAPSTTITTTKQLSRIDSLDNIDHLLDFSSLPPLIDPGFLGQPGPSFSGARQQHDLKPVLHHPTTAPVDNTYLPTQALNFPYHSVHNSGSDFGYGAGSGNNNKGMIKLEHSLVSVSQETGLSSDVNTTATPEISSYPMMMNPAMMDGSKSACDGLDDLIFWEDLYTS

B1: ANAC046(300-338), fragment containing AD2/M5 with its context (domain or fragment, Arabidopsis thaliana, UniProt Q9SQQ6 300-338, looked up)
chain: ATPEISSYPMMMNPAMMDGSKSACDGLDDLIFWEDLYTS
B2: RST domain of Radical-Induced Cell Death1 (RCD1), RCD1-RST(499-572) (domain or fragment, Arabidopsis, UniProt Q8RY59 499-572, looked up)
chain: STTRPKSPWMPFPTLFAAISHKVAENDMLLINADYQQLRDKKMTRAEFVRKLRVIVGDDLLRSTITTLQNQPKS
B3: ANAC046(172-222, S175W), fragment containing AD1/M1-2 (domain or fragment, Arabidopsis thaliana, UniProt Q9SQQ6 172-222, looked up)
chain: NAPWTTITTTKQLSRIDSLDNIDHLLDFSSLPPLIDPGFLGQPGPSFSGAR
B4: TAZ1 domain of HAC1, HAC1-TAZ1(626-724) (domain or fragment, Arabidopsis, UniProt Q9C5X9 626-724, looked up)
chain: GNGNRDPRFKNQQKWLLFLRHARHCKAPEGKCPDRNCVTVQKLWKHMDSCAAPQCSYPRCLPTKTLINHHRSCKEPNCPVCIPVKAYLQQQANARSLAR
B5: TAZ2 domain of HAC1, HAC1-TAZ2(1574-1697) (domain or fragment, Arabidopsis, UniProt Q9C5X9 1574-1697, looked up)
chain: NAQNKEARQLRVLQLRKMLDLLVHASQCRSAHCQYPNCRKVKGLFRHGINCKVRASGGCVLCKKMWYLLQLHARACKESECHVPRCRDLKEHLRRLQQQSDSRRRAAVMEMMRQRAAEVAGGSG
B6: KIX domain of HAC1, HAC1-KIX(43-134) (domain or fragment, Arabidopsis, UniProt Q9C5X9 43-134, looked up)
chain: GPSRVSPVDNDILKLRQAMRIRIFNILQQKQPSPADEASKAKYMDVARRLEEGLFKIANTKEDYVNPSTLEPRLASLIKGRQLNNYNQRHAN
B7: ACID domain of MEDIATOR subunit 25 (MED25), MED25-ACID(532-680) (domain or fragment, Arabidopsis, UniProt Q7XYY2 532-680, looked up)
chain: SNSSAPNMQLSQPSSGAMQTSQSKYVKVWEGNLSGQRQGQPVLITRLEGYRSASASDSLAANWPPTMQIVRLISQDHMNNKQYVGKADFLVFRAMSQHGFLGQLQDKKLCAVIQLPSQTLLLSVSDKACRLIGMLFPGDMVVFKPQIPN

Columns and labels:
[1] = biological target: B4; experiment: ITC
[2] = biological target: B2; experiment: ITC
[3] = biological target: T1, ANAC046 intrinsically disordered …; experiment: ITC
[4] = biological target: B4; experiment: NMR titration
[5] = biological target: B2; experiment: NMR titration
[6] = biological target: T1, ANAC046 intrinsically disordered …; experiment: ITC; remark: listed apart in the source
[7] = biological target: B1; experiment: ITC
[8] = biological target: T1, ANAC046 intrinsically disordered …; experiment: NMR titration

B1
Kd [1]: 6 µM
Kd [2]: 0.12 µM
dH [2]: -7.41 kcal/mol
stoichiometry N [2]: 0.8

B2
Kd [3]: 0.2 µM
dH [3]: -5.5 kcal/mol

B3
Kd [4]: 112 µM
Kd [5]: 148 µM

B4
dH, site AD1/M1-2 (two-site fit) [6]: -15.5 kcal/mol
dH, site AD2/M5 (two-site fit) [6]: -5.98 kcal/mol
dH [7]: -5.98 kcal/mol
stoichiometry N [7]: 0.97

B5
binding result [8]: binds

B6
binding result [8]: binds

B7
binding result [8]: binds
